Series [1] has as its target T1, MsEgtE (Mycolicibacterium smegmatis, UniProt A0R5M7, Y48A).
T1 construct: gene egtE; full-length ORF, pET28a N-terminal hexa-histidine tag, E. coli BL21 (DE3); homodimer (~76 kDa by SEC, predicted 78 kDa)
Briefly: isothermal titration calorimetry, single injection. In kind it is binding. The conditions noted are these: 25 °C; 1 mM sulfoxide 4 injected into 20 μM enzyme. Background: Isothermal titration calorimetry measures the heat released or taken up as one component is titrated into another.

Series [2] deals with T2, MsEgtE (Mycolicibacterium smegmatis, UniProt A0R5M7).
T2 construct: gene egtE; full-length ORF, pET28a N-terminal hexa-histidine tag, E. coli BL21 (DE3); homodimer (~76 kDa by SEC, predicted 78 kDa)
T2 sequence (A0R5M7 1-371): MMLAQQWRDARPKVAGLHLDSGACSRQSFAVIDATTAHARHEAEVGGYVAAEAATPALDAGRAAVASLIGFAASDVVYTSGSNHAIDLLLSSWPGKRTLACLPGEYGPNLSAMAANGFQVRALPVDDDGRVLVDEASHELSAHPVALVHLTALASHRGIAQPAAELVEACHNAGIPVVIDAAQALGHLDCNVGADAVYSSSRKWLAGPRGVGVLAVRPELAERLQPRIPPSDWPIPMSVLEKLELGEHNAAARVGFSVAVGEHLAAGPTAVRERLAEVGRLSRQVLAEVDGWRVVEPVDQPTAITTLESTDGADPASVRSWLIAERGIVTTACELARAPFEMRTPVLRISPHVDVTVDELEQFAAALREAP
Briefly: X-ray crystal structure, […] Å. The series is classed as binding. As to conditions: active site of MsEgtE-PLP; from soaked sulfoxide 4 (10 mM).

Substrate in the series “purified protein”: C[N+](C)(C)[C@@H](Cc1cnc([S+]([O-])C[C@H](N)C(=O)O)[nH]1)C(=O)[O-]
The experiment in a line: purified protein. In kind it is biochemical, Mycolicibacterium smegmatis. The conditions noted are these: 50 mM KPi pH 8.0, 25 °C, PLP-loaded enzyme, 1 mM DTT, 0.13 mM NADH.

Series [3] concerns the molecule itself. Briefly: crystal structure; MsEgtE-PLP crystal, 2.8 Å, two molecules per asymmetric unit; sitting drop at 16 °C, 0.1 M HEPES-Na pH 7.5, 1 M NaCl, 0.1 M LiSO4, 10% PEG1000.
Series [4] concerns the molecule itself. The experiment in a line: crystal structure; MsEgtE-PLP binding pyruvate crystal, 2.35 Å, short soak in sulfoxide 4; 0.1 M citric acid pH 6.5, 15% PEG8000, 15% glycol.

In general, Km refers to the substrate concentration at which the rate is half of its maximum. In general, kcat refers to the maximal rate divided by the concentration of active sites. In general, stoichiometry N refers to the number of molecules, sites or subunits per partner or assembly.

T1 sequence (A0R5M7 whole entry Y48A): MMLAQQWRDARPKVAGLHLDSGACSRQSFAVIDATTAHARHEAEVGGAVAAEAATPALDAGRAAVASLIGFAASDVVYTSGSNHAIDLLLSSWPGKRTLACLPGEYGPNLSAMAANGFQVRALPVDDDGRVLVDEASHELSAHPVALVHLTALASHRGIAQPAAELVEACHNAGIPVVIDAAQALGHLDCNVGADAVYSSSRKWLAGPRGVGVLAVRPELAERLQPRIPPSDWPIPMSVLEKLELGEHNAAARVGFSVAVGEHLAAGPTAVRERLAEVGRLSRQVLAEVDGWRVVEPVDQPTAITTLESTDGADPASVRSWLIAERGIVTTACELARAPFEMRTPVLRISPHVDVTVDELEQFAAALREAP

As to `C[N+](C)(C)[C@@H](Cc1cnc([S+]([O-])C[C@H](N)C(=O)O)[nH]1)C(=O)[O-]` (stereo partly drawn) [compound 4, sulfoxide 4], on MsEgtE [1], the “isothermal titration calorimetry, single injection” value is recorded as “Y48A mutant still retains a certain level of substrate binding capability”. For the molecule `CC(=O)C(=O)O` [pyruvate], the “X-ray crystal structure, 2.35 Å” value at MsEgtE [2] is listed as “pyruvate binds in the deep crevice of the active center”.

B1: MsEgtE (Mycolicibacterium smegmatis MC2 155) (protein)
chain: MMLAQQWRDARPKVAGLHLDSGACSRQSFAVIDATTAHARHEAEVGGYVAAEAATPALDAGRAAVASLIGFAASDVVYTSGSNHAIDLLLSSWPGKRTLACLPGEYGPNLSAMAANGFQVRALPVDDDGRVLVDEASHELSAHPVALVHLTALASHRGIAQPAAELVEACHNAGIPVVIDAAQALGHLDCNVGADAVYSSSRKWLAGPRGVGVLAVRPELAERLQPRIPPSDWPIPMSVLEKLELGEHNAAARVGFSVAVGEHLAAGPTAVRERLAEVGRLSRQVLAEVDGWRVVEPVDQPTAITTLESTDGADPASVRSWLIAERGIVTTACELARAPFEMRTPVLRISPHVDVTVDELEQFAAALREAP
notes: full-length ORF, pET28a N-terminal hexa-histidine tag, E. coli BL21 (DE3); homodimer (~76 kDa by SEC, predicted 78 kDa)
Consider B1, for which, in “purified protein”, the Km amounted to 516.0 ± 122.1 µM and the kcat is 2.08 ± 0.25 s⁻¹.

B2: MsEgtE (Mycolicibacterium smegmatis MC2 155; R202K) (protein)
chain: MMLAQQWRDARPKVAGLHLDSGACSRQSFAVIDATTAHARHEAEVGGYVAAEAATPALDAGRAAVASLIGFAASDVVYTSGSNHAIDLLLSSWPGKRTLACLPGEYGPNLSAMAANGFQVRALPVDDDGRVLVDEASHELSAHPVALVHLTALASHRGIAQPAAELVEACHNAGIPVVIDAAQALGHLDCNVGADAVYSSSKKWLAGPRGVGVLAVRPELAERLQPRIPPSDWPIPMSVLEKLELGEHNAAARVGFSVAVGEHLAAGPTAVRERLAEVGRLSRQVLAEVDGWRVVEPVDQPTAITTLESTDGADPASVRSWLIAERGIVTTACELARAPFEMRTPVLRISPHVDVTVDELEQFAAALREAP
notes: as for B1
As for B2, in “purified protein”, the Km worked out at 58.5 ± 8.7 µM and the kcat turned out to be 0.03 ± 0.01 s⁻¹.

B3: MsEgtE (Mycolicibacterium smegmatis MC2 155; Q183A) (protein)
chain: MMLAQQWRDARPKVAGLHLDSGACSRQSFAVIDATTAHARHEAEVGGYVAAEAATPALDAGRAAVASLIGFAASDVVYTSGSNHAIDLLLSSWPGKRTLACLPGEYGPNLSAMAANGFQVRALPVDDDGRVLVDEASHELSAHPVALVHLTALASHRGIAQPAAELVEACHNAGIPVVIDAAAALGHLDCNVGADAVYSSSRKWLAGPRGVGVLAVRPELAERLQPRIPPSDWPIPMSVLEKLELGEHNAAARVGFSVAVGEHLAAGPTAVRERLAEVGRLSRQVLAEVDGWRVVEPVDQPTAITTLESTDGADPASVRSWLIAERGIVTTACELARAPFEMRTPVLRISPHVDVTVDELEQFAAALREAP
notes: as for B1
As for B3, in “purified protein”, the Michaelis constant (Km) stood at 679.7 ± 235.0 µM and the turnover number (kcat) worked out at 0.23 ± 0.04 s⁻¹.

B4: MsEgtE (Mycolicibacterium smegmatis MC2 155; Y106F) (protein)
chain: MMLAQQWRDARPKVAGLHLDSGACSRQSFAVIDATTAHARHEAEVGGYVAAEAATPALDAGRAAVASLIGFAASDVVYTSGSNHAIDLLLSSWPGKRTLACLPGEFGPNLSAMAANGFQVRALPVDDDGRVLVDEASHELSAHPVALVHLTALASHRGIAQPAAELVEACHNAGIPVVIDAAQALGHLDCNVGADAVYSSSRKWLAGPRGVGVLAVRPELAERLQPRIPPSDWPIPMSVLEKLELGEHNAAARVGFSVAVGEHLAAGPTAVRERLAEVGRLSRQVLAEVDGWRVVEPVDQPTAITTLESTDGADPASVRSWLIAERGIVTTACELARAPFEMRTPVLRISPHVDVTVDELEQFAAALREAP
notes: as for B1
On to B4, for which, in the series “purified protein”, the Km is 52.1 ± 13.1 µM and the kcat is 0.32 ± 0.02 s⁻¹.

B5: ergothioneine-biosynthesis C-S lyase EgtE from Mycobacterium smegmatis (enzyme, M. smegmatis strain mc2155, UniProt A0R5M7 1-371, looked up)
chain: MMLAQQWRDARPKVAGLHLDSGACSRQSFAVIDATTAHARHEAEVGGYVAAEAATPALDAGRAAVASLIGFAASDVVYTSGSNHAIDLLLSSWPGKRTLACLPGEYGPNLSAMAANGFQVRALPVDDDGRVLVDEASHELSAHPVALVHLTALASHRGIAQPAAELVEACHNAGIPVVIDAAQALGHLDCNVGADAVYSSSRKWLAGPRGVGVLAVRPELAERLQPRIPPSDWPIPMSVLEKLELGEHNAAARVGFSVAVGEHLAAGPTAVRERLAEVGRLSRQVLAEVDGWRVVEPVDQPTAITTLESTDGADPASVRSWLIAERGIVTTACELARAPFEMRTPVLRISPHVDVTVDELEQFAAALREAP
modifications: PLP covalently linked to Lys203 via a Schiff base linkage (monomer 1; bond broken in monomer 2 of the MsEgtE-PLP crystal)
notes: EgtE (PLP-dependent C-S lyase), Mycobacterium smegmatis strain mc2155, full-length ORF of msmeg_6246 in pET28a; residues 1-371 described in the structure; Homodimer by crystal structure and size exclusion chromatography; also called MsEgtE; MsEgtE-PLP
As for B5, the “stoichiometry N” value in series [3] was 2; in series [4], 4.

For the origin of these results see publication PMC10805701, “Structure of mycobacterial ergothioneine-biosynthesis C-S lyase EgtE” (The Journal of Biological Chemistry, 2023).
